Measurements as given in patent US20100255008A1 (Hoffmann-La Roche, published 2010).
Residue numbers refer to the chain shown, from its start.

T1: Human recombinant soluble TWEAK (human, UniProt O43508 99-249, limits assumed)
T1 sequence (looked up): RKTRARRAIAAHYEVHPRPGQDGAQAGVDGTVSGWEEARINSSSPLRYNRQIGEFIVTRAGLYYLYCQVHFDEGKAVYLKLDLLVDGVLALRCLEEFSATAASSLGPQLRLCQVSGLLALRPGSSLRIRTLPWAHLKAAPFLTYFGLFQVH

T2: human Flag-tagged soluble TWEAK (amino acids 106-249) (human, UniProt O43508 106-249)
T2 construct: the tag is put first here only by convention; also called Human TWEAK; not shown: Flag tag
T2 sequence (looked up): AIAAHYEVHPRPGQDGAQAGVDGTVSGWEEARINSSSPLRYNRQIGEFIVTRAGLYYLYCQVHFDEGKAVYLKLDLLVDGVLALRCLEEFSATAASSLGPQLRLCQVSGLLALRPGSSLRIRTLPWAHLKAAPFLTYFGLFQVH

T3: Biotinylated human soluble TWEAK (human, UniProt O43508 99-249, limits assumed, biotinylated (sites not given))
T3 construct: also called Human TWEAK
T3 sequence (looked up): T1 sequence (looked up)

B1: TW202 (antibody, V domains shown)
VH: QLQLQESGLGLVKPSQSLTLTCSVTGFSITTPDYSWHWIRQLPGQTLEWMGFLYYEGDTYYNPSLKSRISIARDASKNQFFLQLKAVTTEDTATYFCARRKYSGYGNWFAYWGQGTLVTVSL
VL: QPVLTQSPSASASLRASVKLTCTLSSQHSTYYIEWYQQRPDKAPKYVMYLDSDGSHIKGDGIPDRFSGSSSGAHRYLSISNLQPEDEAIYHCGVYDSTAGAVFGSGTQLTVLG
notes: Armenian hamster monoclonal antibody; also called Antibody 202
B2: Antibody 15 (antibody, V domains shown)
VH: QVQLQESGPGLVKPSETLSLTCAVSGYSIRSGYWWSWIRQPPGKGLEWIGQIYNKGNTDNNPALKSRVTISVDTSKNQFSLKLSSVTAADTAVYYCARVFWDDAYFDVWGQGTMVTVSS
VL: EIVLTQSPATLSLSPGERATLSCKASQSVSIGPIHLMHWYQQKPGQAPRLLIYGASNPESGIPARFSGSGSGTDFTLTISSLEPEDFAVYYCQQGKESPRTFGQGTKLEIK
B3: Antibody 16 (antibody, V domains shown)
VH: B2 VH with N61S, A63S
VL: B2 VL
B4: Antibody 17 (antibody, V domains shown)
VH: B2 VH with A23T
VL: B2 VL
B5: Antibody 18 (antibody, V domains shown)
VH: B2 VH with A23T, N61S, A63S
VL: B2 VL
B6: Antibody 19 (antibody, V domains shown)
VH: B2 VH with P41Q, R67Q
VL: B2 VL
B7: Antibody 20 (antibody, V domains shown)
VH: B2 VH with P41Q, N61S, A63S, R67Q
VL: B2 VL
B8: Antibody 21 (antibody, V domains shown)
VH: B2 VH
VL: B2 VL with A9G, A64D, S81R
B9: Antibody 22 (antibody, V domains shown)
VH: B2 VH with N61S, A63S
VL: B2 VL with A9G, A64D, S81R
B10: Antibody 23 (antibody, V domains shown)
VH: B2 VH with A23T
VL: B2 VL with A9G, A64D, S81R
B11: Antibody 24 (antibody, V domains shown)
VH: B2 VH with A23T, N61S, A63S
VL: B2 VL with A9G, A64D, S81R
B12: Antibody 25 (antibody, V domains shown)
VH: B2 VH with P41Q, R67Q
VL: B2 VL with A9G, A64D, S81R
B13: Antibody 26 (antibody, V domains shown)
VH: B2 VH with P41Q, N61S, A63S, R67Q
VL: B2 VL with A9G, A64D, S81R
B14: TW205 (antibody, V domains shown)
VH: B1 VH with L2I, Q3H, L42F, A86S, A98V, L117Q, L122S
VL: B1 VL with S7A, R39H, K45R, L50V, I62V, H74R
notes: Armenian hamster monoclonal antibody; also called Antibody 205
B15: TW212 (antibody)
VL: DIVLTQSPAYLTMSPGQTTTISCKASQSVSIGPIHLMHWYQQKPGQPPRLLIYGASNPESGVPARFSGSGSGTDFTLTIHPVEADDAATYFCQQGKESPRTFGPGTKLEITRADAKPTVSIFPPSSEQLGTGSATLVCFVNNFYPKDINVKWKVDGSEKRDGVLQSVTDQDSKDSTYSLSSTLSLTKADYERHNLYTCEVTHKTSTAAIVKTLNRNEC
VH: QVQLQESGPGLLKPAQSLSLTCTVTGYSIRSGYWWSWIRQQPGKGLEWMGQIYNKGNTDNNPSLKSQITMTVDTSKNQFFLRLRSVTTEDTAVYYCARVFWDDAYFDVWGQGIQVTVSSATTTAPSVYPLAPACDSTTSTTNTVTLGCLVKGYFPEPVTVSWNSGALTSGVHTFPSVLHSGLYSLSSSVTVPSSTWPSQTVTCNVAHPASSTKVDKKIVPGDGSGCKPCTCPGPEVSSVFIFPPKPKDVLTISLSPKVTCVVVDISQDDPEVQFSWFIDGKEVHTAVTQPREEQFNSTYRMVSVLPILHQDWLNGKEFKCKVNSPAFPVPIEKTISKRRGQLQVPQVYTMPPPKEQLTQSQVSLTCMIKGFYPEDIDVAWQKNGQPEQSFKNTPPVLDTDETYFLYSKLDVKKDDWEKGDTFTCSVVHEALHNHHTEKTLSQRPGK
notes: Armenian hamster monoclonal antibody; also called Antibody 212
B16: TW212chi (antibody, human IgG1)
light: DIVLTQSPAYLTMSPGQTTTISCKASQSVSIGPIHLMHWYQQKPGQPPRLLIYGASNPESGVPARFSGSGSGTDFTLTIHPVEADDAATYFCQQGKESPRTFGPGTKLEITRTVAAPSVFIFPPSDEQLKSGTASVVCLLNNFYPREAKVQWKVDNALQSGNSQESVTEQDSKDSTYSLSSTLTLSKADYEKHKVYACEVTHQGLSSPVTKSFNRGEC
heavy: not shown

Target: T1, Human recombinant soluble TWEAK
Test: cell-based or functional assay

Binder	IL-8 Secretion IC50 [µg/mL]
B1	0.146
B2	0.141
B3	0.163
B4	0.146
B5	0.189
B6	0.253
B7	0.401
B8	0.224
B9	0.249
B10	0.242
B11	0.165
B12	0.475
B13	0.222
B14	0.151
B15	0.112

Target: T2, human Flag-tagged soluble TWEAK (amino …)
Test: receptor interaction ELISA: antibody pre-incubated with human Flag-tagged soluble TWEAK, binding to coated human Fn14:Fc
Procedure: Blocking of human TWEAK/human Fn14 interaction was shown by receptor interaction ELISA. 96-well Maxisorp® plates (Nunc) were coated with 100 μl 1 μg/ml human Fn14:Fc (extracellular domain of human Fn14 (amino acids 1-75) fused to Fc portion of human IgG1) in PBS per well for 1.5 h at room temperature and blocked with a solution of 5% FBS in PBS for 30 minutes at room temperature under shaking. […] Wells were filled with 100 μl of anti-FLAG-HRP detection antibody, diluted 1:5000 in blocking buffer, and incubated for 1 h at room temperature. After four more wash steps, the signal was developed by addition of 100 μl 3,3,5,5-Tetramethylbenzidine (TMB) solution for approximately ten minutes. The reaction was stopped by adding 100 μl of 1 N HCl, and absorbance measured at 450 nm (reference wavelength 620 nm).

Binder	IC50 [µg/mL]
B1	0.0092
B2	0.014
B3	0.022
B4	0.014
B5	0.016
B6	0.015
B7	0.035
B8	0.012
B9	0.017
B10	0.013
B11	0.02
B12	0.042
B13	0.094
B14	0.0088
B15	0.0151
B16	0.0134

Target: T3, Biotinylated human soluble TWEAK
Test: Biacore SPR, biotinylated human soluble TWEAK on streptavidin sensor, antibody 100 nM as analyte, 25° C.
Procedure: A Biacore 2000 instrument was used with a Biacore streptavidin coated sensor mounted into the system. The system buffer HBS-ET (10 mM HEPES pH 7.4, 150 mM NaCl, 1 mM EDTA, 0.05% Tween® 20) was used at a flow rate of 100 μl/min. The sample buffer was the system buffer. Biotinylated human soluble TWEAK and biotinylated murine soluble TWEAK was immobilized on different flow cells on the SA sensor at 150 RU each. The flow cell FC1 was used as a blank reference cell. Each antibody was injected into the system as an analyte at 100 nM at 100 μl/min for 2 min association time. The dissociation of the immunecomplexes were monitored for 5 min. The sensor surface was washed with HBS-ET for 10 seconds and regenerated using 2×2 minutes injections with 10 mM glycine pH 2.25. This procedure was done at 25° C. The kinetically rate limiting step of the complex dissociation phase in the interval [240 s-300 s] was taken to calculate the dissociation rate kd [1/s] (Biacore Evaluation Software 4.0). According to the equation t1/2 diss=ln(2)/(60×kd), the half-life of each immunocomplexe in minutes was calculated.

Binder	t/2 diss [min] 25° C. [min]	t/2 diss. [min] 25° C. [min]
B1	53	
B2		18
B3		15
B4		18
B5		16
B6		17
B7		15
B8		17
B9		14
B10		17
B11		15
B12		17
B13		16
B14	30	
B15	20	
B16	13	
